From publication PMC4277623, “Synthesis and Preliminary Evaluation of a New ^99mTc Labeled Substance P Analogue as a Potential Tumor Imaging Agent” (Iranian Journal of Pharmaceutical Research : IJPR, 2015)
Read-outs that look alike come from different tables or passages of the source.

Assays:
Stability in human serum = format: in vitro ADME; conditions: fresh human serum, 37 °C, up to 24 h; sampled 1, 4, 24 h; ethanol precipitation; RP-HPLC
Description: (§1) The stability of radiolabeled peptide in aqueous solution was evaluated by incubation of the reaction mixture at room temperature (25 °C)up to 24 h.Stability in human serum at 37 °C was tested in parallel after adding 100 μL of reaction mixture to 1ml of fresh human serum. The incubation mixtures were sampled at 1, 4, and 24 h time points. Serum samples (100-200 μL) were treated with ethanol (200-400 μL) and centrifuged (4000 g, 5 min, 4 °C) to precipitate the serum proteins. 20-100 μL aliquots from the supernatant were separated to assess the degradation of ^99mTc labeled peptide by RP-HPLC (method I). 100 μL aliquots from the 25 °C incubated mixture were passed through a […] to eliminate possible ^99mTc colloids and then, 5-20 μL of filtrate were analyzed by RP-HPLC as well.

[1] = Log P, octanol/PBS partition; format: physicochemical; conditions: shake-flask octanol/PBS, vortexed 10 min, γ-counter, three aliquots per layer averaged
Description: In a 2 mL microtube, 0.5 mL of the^99mTc labeled peptides in PBS was mixed with 0.5 mL of octanol. The tube was vigorously vortexed over a period of 10 min and centrifuged at 4000g for 5 min. Three aliquots of 100 μL were sampled from eachlayer and counted in theγ counter. The averaged activities from the aqueous and the octanol layers were used to calculate the log p-values. The octanol-to-water partition coefficient (Po/w) of the radiolabeled peptides was calculated by dividing the counts of the octanol phase by that of the aqueous phase.

[2] = Stability in aqueous solution; format: physicochemical; conditions: reaction mixture at 25 °C up to 24 h; sampled 1, 4, 24 h; RP-HPLC
Description: as §1

[3] = Biodistribution in normal mice; format: in vivo; conditions: for tissue uptake at 1 h / tissue uptake at 4 h / tissue uptake at 24 h: male, mouse, iv, total radioactivity
Description: Male albino mice in a weight range of18-24 g were used for normal mice treatments and malenude mice (6 to 8 weeks old) were used for in-vivo tumor treatments. The mice were housed at controlled room temperature (25 °C) in a 12 h light/12 h dark schedule. They were kept in standard cages with free access to food and water except during the experiments. The nude mice were grown and kept in isolated sterile condition. All animal experiments were carried out in compliance with our institutional ethical guidelines.
Freshly labeled ^99mTc-HYNIC-Tyr^8-Met(O)^11-SP (purity>98%) was diluted to 3.3 nmol/mL with normal saline and a dose of 800 µCi/ 330 pmol in 100 µL was injected to each mouse via the tail vein. Also agroup of three animals (blocked group) were given150 µg of SP in 50 µL salineco-injected with the radiopeptide to determine the non-specific biodistribution of the radiopeptide by blocking the receptor-positive organs. After 1, 4, and 24 h post injection the mice in groups of three animals were sacrificed and organs of interest were excised. All organs and tissues were weighed, and the radioactivity was determined by gamma counter. Results were expressed as percentage of injected dose per gram (% ID/g) of tissue.

CC(C)C[C@H](NC(=O)CNC(=O)[C@H](Cc1ccc(O)cc1)NC(=O)[C@H](Cc1ccccc1)NC(=O)[C@H](CCC(N)=O)NC(=O)[C@H](CCC(N)=O)NC(=O)[C@@H]1CCCN1C(=O)[C@H](CCCCN)NC(=O)[C@@H]1CCCN1C(=O)[C@H](CCCNC(=N)N)NC(=O)c1ccc(NN)nc1)C(=O)N[C@@H](CC[S+](C)[O-])C(N)=O (stereo partly drawn) [^99mTc-HYNIC-Tyr^8-Met(O)^11-SP, metal not drawn]
stability in human serum (Stability in human serum): good stability
log P [1]: -3.75
stability in aqueous solution [2]: good stability
%ID/g Blood ([3]; Blood, 1 h p.i., i.v., mean ± SEM, n=3): 1.02±0.16 %ID/g
%ID/g Blood ([3]; Blood, 4 h p.i., i.v., mean ± SEM, n=3): 0.36±0.03 %ID/g
D% Blood ([3]; Blood, decreased percent of %ID/g between 1 h and 4 h): 65%
%ID/g Bone ([3]; Bone, 1 h p.i., i.v., mean ± SEM, n=3): 0.44±0.03 %ID/g
D% Bone ([3]; Bone, decreased percent of %ID/g between 1 h and 4 h): 55%
D% Heart ([3]; Heart, decreased percent of %ID/g between 1 h and 4 h): 68%
D% Kidneys ([3]; Kidneys, decreased percent of %ID/g between 1 h and 4 h): 35%
%ID/g L. intestine ([3]; L. intestine, 1 h p.i., i.v., mean ± SEM, n=3): 1.14±0.09 %ID/g
%ID/g L. intestine ([3]; L. intestine, 4 h p.i., i.v., mean ± SEM, n=3): 1.33±0.28 %ID/g
%ID/g L. intestine ([3]; L. intestine, 24 h p.i., i.v., mean ± SEM, n=3): 0.37±0.06 %ID/g
D% L. intestine ([3]; L. intestine, decreased percent of %ID/g between 1 h and 4 h): -17%
%ID/g Liver ([3]; Liver, 1 h p.i., i.v., mean ± SEM, n=3): 0.58±0.04 %ID/g
%ID/g Liver ([3]; Liver, 4 h p.i., i.v., mean ± SEM, n=3): 0.38±0.05 %ID/g
%ID/g Liver ([3]; Liver, 24 h p.i., i.v., mean ± SEM, n=3): 0.16±0.02 %ID/g
D% Liver ([3]; Liver, decreased percent of %ID/g between 1 h and 4 h): 34%
%ID/g Lung ([3]; Lung, 1 h p.i., i.v., mean ± SEM, n=3): 0.94±0.19 %ID/g
%ID/g Lung ([3]; Lung, 4 h p.i., i.v., mean ± SEM, n=3): 0.33±0.02 %ID/g
%ID/g Lung ([3]; Lung, 24 h p.i., i.v., mean ± SEM, n=3): 0.17±0.04 %ID/g
D% Lung ([3]; Lung, decreased percent of %ID/g between 1 h and 4 h): 65%
%ID/g Muscle ([3]; Muscle, 1 h p.i., i.v., mean ± SEM, n=3): 0.32±0.07 %ID/g
D% Muscle ([3]; Muscle, decreased percent of %ID/g between 1 h and 4 h): 72%
%ID/g S. intestine ([3]; S. intestine, 1 h p.i., i.v., mean ± SEM, n=3): 2.13±0.17 %ID/g
%ID/g S. intestine ([3]; S. intestine, 4 h p.i., i.v., mean ± SEM, n=3): 0.89±0.21 %ID/g
%ID/g S. intestine ([3]; S. intestine, 24 h p.i., i.v., mean ± SEM, n=3): 0.24±0.04 %ID/g
D% S. intestine ([3]; S. intestine, decreased percent of %ID/g between 1 h and 4 h): 58%
%ID/g Salivary G. ([3]; Salivary G., 1 h p.i., i.v., mean ± SEM, n=3): 0.61±0.05 %ID/g
D% Salivary G. ([3]; Salivary G., decreased percent of %ID/g between 1 h and 4 h): 57%
D% Spleen ([3]; Spleen, decreased percent of %ID/g between 1 h and 4 h): 30%
D% Stomach ([3]; Stomach, decreased percent of %ID/g between 1 h and 4 h): 75%
tissue uptake at 1 h ([3]; albino, 330 pmol per mouse, Stomach, 1 h p.i., i.v., mean ± SEM, n=3, read-out: %ID/g Stomach): 1.57 ± 0.13 %ID/g
tissue uptake at 4 h ([3]; albino, 330 pmol per mouse, Stomach, 4 h p.i., i.v., mean ± SEM, n=3, read-out: %ID/g Stomach): 0.39 ± 0.06 %ID/g
tissue uptake at 24 h ([3]; albino, 330 pmol per mouse, Stomach, 24 h p.i., i.v., mean ± SEM, n=3, read-out: %ID/g Stomach): 0.15 ± 0.01 %ID/g
tissue uptake at 4 h ([3]; albino, salivary gland, 330 pmol per mouse, Salivary G., 4 h p.i., i.v., mean ± SEM, n=3, read-out: %ID/g Salivary G.): 0.26 ± 0.02 %ID/g
tissue uptake at 24 h ([3]; albino, salivary gland, 330 pmol per mouse, Salivary G., 24 h p.i., i.v., mean ± SEM, n=3, read-out: %ID/g Salivary G.): 0.2 ± 0.02 %ID/g
tissue uptake at 24 h ([3]; 800 uCi (330 pmol) per mouse, Blood, 24 h p.i., i.v., mean ± SEM, n=3, read-out: %ID/g Blood): 0.14 ± 0.02 %ID/g
tissue uptake at 4 h ([3]; 800 uCi (330 pmol) per mouse, Bone, 4 h p.i., i.v., mean ± SEM, n=3, read-out: %ID/g Bone): 0.2 ± 0.02 %ID/g
tissue uptake at 24 h ([3]; 800 uCi (330 pmol) per mouse, Bone, 24 h p.i., i.v., mean ± SEM, n=3, read-out: %ID/g Bone): 0.07 ± 0.03 %ID/g
tissue uptake at 1 h ([3]; 800 uCi (330 pmol) per mouse, Heart, 1 h p.i., i.v., mean ± SEM, n=3, read-out: %ID/g Heart): 0.55 ± 0.14 %ID/g
tissue uptake at 4 h ([3]; 800 uCi (330 pmol) per mouse, Heart, 4 h p.i., i.v., mean ± SEM, n=3, read-out: %ID/g Heart): 0.17 ± 0.01 %ID/g
tissue uptake at 24 h ([3]; 800 uCi (330 pmol) per mouse, Heart, 24 h p.i., i.v., mean ± SEM, n=3, read-out: %ID/g Heart): 0.06 ± 0.04 %ID/g
tissue uptake at 1 h ([3]; 800 uCi (330 pmol) per mouse, Kidneys, 1 h p.i., i.v., mean ± SEM, n=3, read-out: %ID/g Kidneys): 21.2 ± 0.7 %ID/g
tissue uptake at 4 h ([3]; 800 uCi (330 pmol) per mouse, Kidneys, 4 h p.i., i.v., mean ± SEM, n=3, read-out: %ID/g Kidneys): 13.8 ± 1.96 %ID/g
tissue uptake at 24 h ([3]; 800 uCi (330 pmol) per mouse, Kidneys, 24 h p.i., i.v., mean ± SEM, n=3, read-out: %ID/g Kidneys): 5.47 ± 0.56 %ID/g
tissue uptake at 4 h ([3]; 800 uCi (330 pmol) per mouse, Muscle, 4 h p.i., i.v., mean ± SEM, n=3, read-out: %ID/g Muscle): 0.09 ± 0.03 %ID/g
tissue uptake at 24 h ([3]; 800 uCi (330 pmol) per mouse, Muscle, 24 h p.i., i.v., mean ± SEM, n=3, read-out: %ID/g Muscle): 0.04 ± 0.02 %ID/g
tissue uptake at 1 h ([3]; 800 uCi (330 pmol) per mouse, Spleen, 1 h p.i., i.v., mean ± SEM, n=3, read-out: %ID/g Spleen): 0.4 ± 0.09 %ID/g
tissue uptake at 4 h ([3]; 800 uCi (330 pmol) per mouse, Spleen, 4 h p.i., i.v., mean ± SEM, n=3, read-out: %ID/g Spleen): 0.28 ± 0.06 %ID/g
tissue uptake at 24 h ([3]; 800 uCi (330 pmol) per mouse, Spleen, 24 h p.i., i.v., mean ± SEM, n=3, read-out: %ID/g Spleen): 0.13 ± 0.08 %ID/g
